Laboratory results as given in the RNAGym collection of RNA variant scans (doi:10.7554/elife.90254).

B1: OR4K15 (parent)
chain: GUUAACGGUCAUAGGCCAUGGAAACUAGGAGCACCAUUUCGCUGCCAGUGAAGAAAUGAACAAAGAAAAUCUGGGCCAGGCAGGCAUCAAAAGAAAUAGUCUUGCGCUCAACCAGAAAGUCUGUAAUCAUUUUAAGGGUA

Variants of: B1
Test: self-cleavage, relative activity (ratio to wild type); higher = more cleavage; in vitro, sequencing; the parent is a self-cleaving ribozyme

Variant	self-cleavage
A54G A67G	1.57
U127A A134U	1.36
G28A A140G	2
U43C A140U	1.18
A59U A94G	1.02
A13U A66G	1.49
A91G A126G	0.55
G7A A96G	2.05
A118G C128U	0.61
A22G U43C	0.78
A92G A98G	0.74
U39G C105A	0.16
U100C U122C	1.66
U37A A60G	1.14
A47C A54G	1.5
C45U U132A	1.05
U9A A62G	0.45
U49A G137A	1.92
A118G G138A	1.14
U26C U49C	1.41
U2C C10U	1.04
U2C G137U	1.25
A82G A111C	0.01
U12C U97A	1.6

Variant	self-cleavage
A114U U133C	0.14
A67G U97C	1.74
G20A A110U	1.39
U39C G53A	1.53
A30G A82C	0.07
A59G U103C	0.67
G20U A129G	1.17
A64G U132C	1.53
U97A A98U	2.29
U2C C112U	0
A18G U19C	1.06
U49C G80U	0.11
C16U C85U	1.15
A52U A117G	1.11
A11U G41A	0.96
U9C A11G	0.85
U2C	0.88
A89U C121U	2.24
C46U A82U	0.14
A52G U57C	1.1
U38C C109U	0.26
A59G A111C	0.03
U38C U100C	2.28
U19C A36G	2.03

Variant	self-cleavage
A55U A117G	1.77
A68U A78G	0.27
A33U U72G	0.51
U43C A60G	1.43
U57A U122C	0.75
U19C A69C	1.71
A64G A66G	1.39
U3C A118G	0.54
A56U U87C	1.05
A11U A82U	0.31
A67U U130A	1.56
C16U A96G	1.27
U97C A114G	0.13
A89G U102C	1.68
G104U A114U	0.02
A27G U102C	1.06
C121A U130C	1.87
A66G A96G	1.87
A24G A51U	1.19
A89U A91U	1.24
A23U A78U	0.2
U2G G93U	1.01
A36G A59U	0.83
A69G U122C	0.43

Variant	self-cleavage
U9A A116G	0.45
U57G G137C	1.71
G14A A23G	0.8
U9C A134G	1.55
A62U U132C	1.48
U3A U127A	1.84
A90G C101U	0.21
G80U U120C	0.08
G8U A69G	2.76
A60G C105U	0.28
C16G A55G	0.86
A24G A78U	0.39
U9A A56G	1.3
A23G G53C	1.82
U39C A67G	1.24
A78U U102A	0.16
A56G U131C	1.47
U72A A96G	0.2
U72C C109A	0.07
A33G A52U	1.42
U57C A69G	0.75
A24U A59G	1.28
A68G G137A	1.06
A86G A129C	1.29

Variant	self-cleavage
A23G U72A	0.23
A52G C76U	0.13
C71G	0.24
U39C A91U	1.59
A27U U37C	1.42
A52G A68G	1.5
C16G A95G	1.06
A33G U49C	0.5
U9C A94G	1.35
C32A A47G	0.49
U57C G137U	2.18
A91C U131A	2.16
U43C A94G	1.78
U72C U124G	0.07
C10U A90C	0.97
A126G U130G	1.19
U49C U127A	2.43
U108C U127C	0.01
A4G U133C	1.3
A52G U122G	1.94
A86U C105U	0.27
A51U A64U	1.15
A95G G138C	2.62
A78G A86U	0.1

Variant	self-cleavage
U49C A125G	0.7
U9A C34U	0.55
U3C C109G	0.04
A51G A135G	1.7
A47C A90G	1.61
A96U U102A	1.08
A64C U102A	0.71
A5G A118G	1
A18G A110U	1.32
A36U A90U	1.74
A78G G84A	0.24
A68G U122C	1.18
A62G G106A	0.01
U124A A125G	0.91
U57A U87C	0.92
A96G U103C	1.27
C61U A82G	0.28
U72A A125G	0.05
A89C A91G	0.72
U39C C128A	0.73
G73A A89C	0.14
U57C A67G	0.83
U87C A116G	0.55
G75A A117G	0.07

Variant	self-cleavage
A111G A116U	0.04
A47U U120C	0.28
A30G U131C	0.95
A96C A118G	0.95
A114G G138A	0.76
A23G A33G	0.84
A54U U132C	2.02
A86U A118G	1.33
A51G G136U	2.08
U38A U103C	0.64
A13U A47U	1.24
U87A A135G	2.03
U72C U100C	0.34
A27G A117U	0.53
A30G C121A	2.31
A60C U108A	0.04
C40U U87C	1.44
G1A U49C	1.35
G65U U87C	2.23
A66G A78U	0.5
G50A A92U	2.15
U87C U97C	1.63
U19C A89G	1.5
